Laboratory results: the supplement of paper PMC12042874
± gives the uncertainty stated by the source.

Assay: amyloid nucleation score (Sup35N fusion, yeast selection) (log enrichment); library NNK2; higher = more nucleation; inactive = no reads after selection
Outline: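 Output and input plasmid inserts were sequenced by Illumina after psi-negative yeast carrying Sup35N fused to peptides of 20 random codons had been induced 24 hours with 100 μM copper sulfate and grown 7 days at 30°C on medium lacking adenine and uracil. The nucleation score is the DiMSum log enrichment of output over input reads, centred on the mode score of non-aggregating sequences. Sequences with under 100 input reads were excluded.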

Substance | amyloid nucleation score
NTLVMRWCRGCQWKEQLASN | 1.1 ± 0.41
NTRGWDAGS | 1.08 ± 0.28
NTVFLLSFGCCEYYRFWGYL | 8.34 ± 0.057
NTYLSMEFLLTP | inactive
NVDWCCQICSCFTRIFELLM | 2.21 ± 0.23
NVGGIASLGPFTY | -0.14 ± 0.27
NVHCILMSGVMGIQYRWKVL | 0.395 ± 0.51
NVHDSLFWQFVIVNYTIGLS | 3.38 ± 0.042
NVIMMDLWVDLAFKSLGYG | 6.291 ± 0.046
NVLRRFNCWRYESGFSNFVN | -1.38 ± 0.36
NVVMHRENVYFCLVNLHWTD | 7.837 ± 0.04
NWFHVRTDCRRWGGRKVYYN | -0.883 ± 1.1
NWIPGVVEKRSRLSGFWSWL | 0.657 ± 0.23
NWLKYFYVSDFQWWKGYPHV | -0.067 ± 0.36
NWVWLKWRITQYFIHSASSS | 1.43 ± 0.19
NWWYSRSRPHMGSSISFSEV | -0.37 ± 0.41
NYLLMR | 0.414 ± 0.35
NYRLQIINGRRSTSVRVQGA | 0.606 ± 0.36
NYTGQTFVMTGLISFNPQIG | 5.79 ± 0.074
NYVVE | 4.73 ± 0.069
PAASLRLRELMRYDDWRGVA | 0.03 ± 0.38
PATLAKIYSVGVGNYHRFVR | inactive

Substance | amyloid nucleation score
PAWSITLVPLLHTGCSDTKR | 0.582 ± 0.31
PCACCYGSLAYAAVHSNWLG | 8.495 ± 0.07
PCCFYLRICLCFSNTVEPIG | 4.07 ± 0.046
PCHFVCDCTRMASTTVIHV | 0.01 ± 0.45
PCISDIFKMDNIYGQQSLFP | -0.266 ± 1.1
PCNLKNNCVSEWIGLFVQPQ | 2.23 ± 0.18
PCTMDYGVPRT | 0.585 ± 0.66
PCYFINFLRFSWNIQLYNVL | -0.668 ± 1.1
PDFRSP | -0.451 ± 0.41
PDFYMYPSLNDKSDLI | -0.78 ± 0.76
PDLMLPDRLDIERCLQVWD | 0.049 ± 0.18
PDRVLLYKLTVRRFTGCDWG | 2.32 ± 0.17
PDYYYMTTLLYCRSSKSLKR | -1.46 ± 1.1
PEFLNKMQTTIYDKDCYMDR | inactive
PEMLHTVILGISSNHYERGL | -1.12 ± 0.74
PEMWHYMRFSSIKIRLTSKF | -0.016 ± 0.65
PEWFGR | 0.588 ± 0.23
PEYPVQIYMSMDL | -1.33 ± 0.78
PFGGVEAFAGRMWWVEHSYW | 0.009 ± 0.55
PFGMCSFTVVIYYGCFEDAH | 0.519 ± 0.3
PFMLSVHFALYMSDYIYMHL | -0.02 ± 0.46
PFVTFATVFLLKPMVFAKQC | 1.23 ± 0.38

Substance | amyloid nucleation score
PGIMNVPS | 0.456 ± 0.32
PGSVWFSLTSMHE | 0.623 ± 0.66
PGVPP | -1.06 ± 1.1
PHDVFRWCVCAVPGSERSTG | 0.815 ± 0.25
PHVFYCSILV | inactive
PIFNMSTPNFLSSPESRLLV | inactive
PIKYIVFSVLSCRRCLGNSM | 0.651 ± 0.48
PIRCRMKFY | -0.599 ± 0.38
PISFVCYMEKVLDYANWPCR | 8.458 ± 0.066
PKQDTA | -0.967 ± 0.36
PKRSCLVLGYNIVITDMQAR | 6.28 ± 0.067
PLDPHCVFPIDNTSMMRVV | 0.295 ± 0.32
PLLTMWDLDSGVSGFCQVRS | -0.477 ± 0.35
PLMSLLPPPNTR | -0.935 ± 0.44
PMFNEHRFSR | 2.37 ± 0.1
PMSSMMRGSDPKV | 0.119 ± 0.76
PNRYYQLGTYFLNVQVRQFG | 4.18 ± 0.045
PPRGRTAINMTSKCQARVRP | 0.966 ± 0.3
PQAVLKGTQGHNLTKNLTWA | -0.774 ± 0.49
PRGEFTWWSLGIIPNRWQCR | -0.771 ± 1.1
PRKLLSLKPNSTAAGKCATL | 2.89 ± 0.079
PRKPRNVDSL | 0.134 ± 0.18

Substance | amyloid nucleation score
PRLYTPILYCLLTRCKVYTT | 3.41 ± 0.051
PRWRDRVVNMKSDLDGV | 5.51 ± 0.073
PSAVRTILVTAI | -0.447 ± 0.35
PSCDVFVKIRLHFAFVKNFI | inactive
PSDTYNNDG | 0.751 ± 0.58
PSGFVVLGSLCGMIFVRVTK | -0.974 ± 0.49
PSLRV | 1.08 ± 0.42
PSMIYFYRGSSLFASWGFLI | inactive
PSNKLKWLCLDV | 0.576 ± 0.43
PSRVSVSYM | 2.69 ± 0.076
PSVCKWCYMKCRRRTCFSQL | inactive
PSVDCSEIKPIWNLVKYFLI | -0.571 ± 0.26
PSWSAKTCACWNKAYPIVEI | 0.633 ± 0.47
PSYDVCSMDCLDEKDGFMWL | 0.25 ± 0.62
PTLVLKKAVEPTQENGSLTV | 5.767 ± 0.051
PTMEPVVHITLDCVYKDF | inactive
PTRIFSCSRSGGWYYL | -0.831 ± 0.32
PTRLTVKVMCLKPEPLVWKL | 6.476 ± 0.042
PTYFWKQQCWVHYICWIMSY | -1.15 ± 0.35
PVNPQEFLSALSSRYEVKSW | -0.095 ± 1.1
